Experimental findings from patent US20210206856A1 (PANDION OPERATIONS, published 2021) are described below.

Where two headings read alike, the source gives them in different places.

Assay [1] concerns the target T1, human MAdCAM expressed on cells (human, UniProt Q13477 19-382).
T1 construct: whole, on cells; also called MADCAM1
T1 sequence (looked up): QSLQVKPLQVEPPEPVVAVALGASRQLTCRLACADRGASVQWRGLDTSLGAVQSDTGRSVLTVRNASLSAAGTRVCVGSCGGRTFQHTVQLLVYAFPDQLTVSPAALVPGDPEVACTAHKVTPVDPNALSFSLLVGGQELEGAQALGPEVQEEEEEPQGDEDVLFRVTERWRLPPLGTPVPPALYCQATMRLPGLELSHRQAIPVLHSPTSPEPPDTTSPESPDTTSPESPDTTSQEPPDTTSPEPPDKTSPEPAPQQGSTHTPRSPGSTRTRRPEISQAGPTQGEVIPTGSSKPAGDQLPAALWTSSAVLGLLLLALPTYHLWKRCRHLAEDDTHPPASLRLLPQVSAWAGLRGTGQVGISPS
Briefly: cell binding.

In assay [2] the target is T2, mouse MAdCAM expressed on cells (mouse, UniProt Q61826 22-405).
T2 construct: whole, on cells
T2 sequence (looked up): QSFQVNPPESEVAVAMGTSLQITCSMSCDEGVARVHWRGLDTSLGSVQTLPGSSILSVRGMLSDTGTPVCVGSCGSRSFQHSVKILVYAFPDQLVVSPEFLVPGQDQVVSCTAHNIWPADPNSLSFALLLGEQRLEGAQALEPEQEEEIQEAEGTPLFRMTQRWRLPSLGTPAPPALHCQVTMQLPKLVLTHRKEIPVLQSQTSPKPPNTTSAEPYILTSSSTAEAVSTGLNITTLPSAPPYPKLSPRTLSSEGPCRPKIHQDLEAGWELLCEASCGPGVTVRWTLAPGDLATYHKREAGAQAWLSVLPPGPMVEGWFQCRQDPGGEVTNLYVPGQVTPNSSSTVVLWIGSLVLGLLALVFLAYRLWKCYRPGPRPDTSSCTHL
Description: cell binding.

For assay [3], the target named is T3, recombinant mouse MAdCAM-1 (mouse, UniProt Q61826 22-365, limits assumed).
T3 construct: also called mMAdCAM-1; mouse MAdCAM-Fc
T3 sequence (looked up): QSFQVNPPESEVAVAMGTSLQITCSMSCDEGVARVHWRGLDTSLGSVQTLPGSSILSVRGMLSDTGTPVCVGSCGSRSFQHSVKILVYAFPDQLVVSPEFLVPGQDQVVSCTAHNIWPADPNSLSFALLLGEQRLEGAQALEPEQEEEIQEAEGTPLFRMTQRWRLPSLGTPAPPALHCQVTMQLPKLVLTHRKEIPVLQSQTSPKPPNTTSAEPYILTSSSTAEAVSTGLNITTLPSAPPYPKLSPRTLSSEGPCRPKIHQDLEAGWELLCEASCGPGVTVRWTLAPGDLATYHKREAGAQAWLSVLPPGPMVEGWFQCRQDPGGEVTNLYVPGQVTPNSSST
Description: Octet.

The target of assay [4] is T2, mouse MAdCAM expressed on cells. Description: cell binding. The source holds these as a separate data set.
For assay [5], the target named is T1, human MAdCAM expressed on cells. Briefly: cell binding. This is another data set of the same source.

B1: MAdCAM Antibody Table 1 Clone 7 (scFv)
scFv: QVQLVQSGAEVKKPGASVKVSCKASGYTFTGYHIHWVRQAPGQGLEWMGIINPSGGSTIYAQKFQGRVTMTRDTSTSTVYMELSSLRSEDTAVYYCAKDWSSWYLGPFDYWGQGTLVTVSSGGGGSGGGGSGGGGSGGGGSDIQMTQSPSSLSASVGDRVTITCRASQNISSSLNWYQQKPGKAPKLLIYAASSLQSGVPSRFSGSGSGTDFTLTISSLQPEDFATYYCQQSYTTPYTFGQGTKVEIK
For the molecule B1, the binding result in assay [1] and in assay [2] was “binds” each time.

B2: MAdCAM Antibody Table 1 Clone 2 (scFv)
scFv: QVQLVQSGAEVKKPGASVKVSCKASGYPFIGYYLHWVRQAPGQGLEWMGIINPSGGSTSYAQKFQGRVTMTRDTSTSTVYMELSSLRSEDTAVYYCAREGRLSYGMDAWGQGTLVTVSSGGGGSGGGGSGGGGSGGGGSDIQMTQSPSSLSASVGDRVTITCRASQSISSYLAWYQQKPGKAPKLLIYGASTLESGVPSRFSGSGSGTDFTLTISSLQPEDFATYYCQQTWGPPFTFGQGTKLEIK
With B2, the binding result in assay [1] and in assay [2] was “binds” in each case.

B3: MAdCAM Antibody Table 1 Clone 3 (scFv)
scFv: QVQLVQSGAEVKKPGASVKVSCKASGYPFIGQYLHWVRQAPGQGLEWMGIINPSGGSTSYAQKFQGRVTMTRDTSTSTVYMELSSLRSEDTAVYYCAREGRLSYGMDAWGQGTLVTVSSGGGGSGGGGSGGGGSGGGGSDIQMTQSPSSLSASVGDRVTITCRASQSISSYLAWYQQKPGKAPKLLIYGASTLESGVPSRFSGSGSGTDFTLTISSLQPEDFATYYCQQTWGPPFTFGQGTKLEIK
In the case of B3, the binding result in assay [1] and in assay [2] was “binds” throughout.

B4: MAdCAM Antibody Table 2 Clone 28 (antibody, human IgG1, V domains shown)
VH: EVQLLESGGGLVQPGGSLRLSCAASGFTFSSYAMSWVRQAPGKGLEWVSYISSSSTYTNYADSVKGRFTISRDNSKNTLYLQMNSLRAEDTAVYYCARANSSSWYDWYFDLWGQGTLVTVSS
VL: not shown
With B4, the binding result in assay [3] and in assay [4] was “no binding” throughout.

B5: MAdCAM Antibody Table 2 Clone 29 (antibody, human IgG1, V domains shown)
VH: EVQLLESGGGLVQPGGSLRLSCAASGFTFSSYQMSWVRQAPGKGLEWVSYISSSSTYTNYADSVKGRFTISRDNSKNTLYLQMNSLRAEDTAVYYCARANSSSWYDWYFDLWGQGTLVTVSS
VL: not shown
In the case of B5, the binding result in assay [3] is reported as “no binding”; in assay [5], “binds”; in assay [4] it was “no binding”.

B6: MAdCAM Antibody Table 2 Clone 23 (antibody, human IgG1, V domains shown)
VH: EVQLLESGGGLVQPGGSLRLSCAASGFTFDDYAMHWVRQAPGKGLEWVSYIDTSSSHLYYADSVKGRFTISRDNSKNTLYLQMNSLRAEDTAVYYCARDEAAAGYYGMDVWGQGTTVTVSS
VL: DIQMTQSPSSLSASVGDRVTITCQAGQDISNYLNWYQQKPGKAPKLLIYDASNLETGVPSRFSGSGSGTDFTLTISSLQPEDFATYYCQQTYSTPITFGQGTKLEIK
On to B6, for which the figures for the binding result in assay [3], in assay [5] and in assay [4] were “no binding”, “binds” and “no binding”, respectively.

B7: MAdCAM Antibody Table 2 Clone 20 (antibody, human IgG1, V domains shown)
VH: EVQLLESGGGLVQPGGSLRLSCAASGFTFSDSAMHWVRQAPGKGLEWVSAISGSGSTIYYADSVKGRFTISRDNSKNTLYLQMNSLRAEDTAVYYCVSDIAVAGHWYFDLWGRGTLVTVSS
VL: DIQMTQSPSSLSASVGDRVTITCRASQSISTFLNWYQQKPGKAPKLLIYAASRLEGGVPSRFSGSGSGTDFTLTISSLQPEDFATYYCQQANSFPLTFGPGTKVDIK
As to B7, the binding result in assay [3] is “no binding”; in assay [5], “binds”; in assay [4], “no binding”.

B8: MAdCAM Antibody Table 2 Clone 17 (antibody, human IgG1, V domains shown)
VH: QVQLVQSGAEVKKPGSSVKVSCKASGYTFTDYHIHWVRQAPGQGLEWMGGIVPRSGSTTYAQKFQGRVTITADESTSTAYMELSSLRSEDTAVYYCAKDESSGWYYFDYWGQGTLVTVSS
VL: DIVMTQSPLSLPVTPGEPASISCRSSQSLLHSNGYNYLDWYLQKPGQSPQLLIYSAYNRASGVPDRFSGSGSGTDFTLKISRVEAEDVGVYYCMQALQTPLTFGQGTKVEIK
Consider B8, for which the values for the binding result in assay [3], in assay [5] and in assay [4] were “no binding”, “binds” and “no binding”, respectively.

B9: MAdCAM Antibody Table 2 Clone 6 (antibody, human IgG1, V domains shown)
VH: EVQLLESGGGLVQPGGSLRLSCAASGFTFNNYAFHWVRQAPGKGLEWVSRINSYGTSTTYADSVKGRFTISRDNSKNTLYLQMNSLRAEDTAVYYCAREGPVAGYWYFDLWGQGTLVTVSS
VL: DIQMTQSPSSLSASVGDRVTITCRASQIIGTNLAWYQQKPGKAPKLLIYGASSLQSGVPSRFSGSGSGTDFTLTISSLQPEDFATYYCQQSYRLPFTFGQGTKVEIK
For B9, the binding result in assay [3] is given as “no binding”; in assay [5] it was “binds”; in assay [4] it was “no binding”.

B10: MAdCAM Antibody Table 2 Clone 24 (antibody, human IgG1, V domains shown)
VH: EVQLVESGGGLVKPGGSLRLSCAASGFTFSSYWMSWVRQAPGKGLEWVSRISSDGRITTYAAPVKGRFTISRDDSKNTLYLQMNSLKTEDTAVYYCARGTSYCTGGVCDIDYWGQGTLVTVSS
VL: DIQMTQSPSSLSASVGDRVTITCRASQSIGRNLNWYQQKPGKAPKLLIYSASNLQSGVPSRFSGSGSGTDFTLTISSLQPEDFATYYCQQSYSIPLTFGPGTKVDIK
As to B10, the binding result is listed as “no binding” in assay [3], “binds” in assay [5] and “no binding” in assay [4].

B11: MAdCAM Antibody Table 1 Clone 11 (scFv)
scFv: QVQLVQSGAEVKKPGASVKVSCKASGYTFTTYYMHWVRQAPGQGLEWMGGFDPEDGETIYAQKFQGRVTMTRDTSTSTVYMELSSLRSEDTAVYYCARHAVAGAVGAGYYYYGMDVWGQGTMVTVSSGGGGSGGGGSGGGGSGGGGSDIQMTQSPSSLSASVGDRVTITCRASESISNWLAWYQQKPGKAPKLLIYAASTLQSGVPSRFSGSGSGTDFTLTISSLQPEDFATYYCQQSYSVPFTFGPGTKVDIK
For B11, the binding result is on record as “binds” in assay [1] and “no binding” in assay [2].

B12: MAdCAM Antibody Table 1 Clone 5 (scFv)
scFv: EVQLLESGGGLVQPGGSLRLSCAASGFTFSSYWMHWVRQAPGKGLEWVSSISPGGSNIDYADSVKGRFTISRDNSKNTLYLQMNSLRAEDTAVYYCAREVQLSHYDYWGQGTLVTVSSGGGGSGGGGSGGGGSGGGGSDIQMTQSPSSLSASVGDRVTITCRASQGISNSLAWYQQKPGKAPKLLIYGASSLQSGVPSRFSGSGSGTDFTLTISSLQPEDFATYYCQQANSFPFTFGQGTKVEIK
For the molecule B12, the binding result in assay [1] and in assay [2] was “binds” throughout.

B13: MAdCAM Antibody Table 2 Clone 14 (antibody, human IgG1, V domains shown)
VH: QVQLVQSGAEVKKPGSSVKVSCKASGYTFTNYYMHWVRQAPGQGLEWMGGIIPIVDGVKYAQKFQGRVTITADESTSTAYMELSSLRSEDTAVYYCAKGQFTGNYYYGMDYWGQGTLVTVSS
VL: DIQMTQSPSSLSASVGDRVTITCQANQDISNYLNWYQQKPGKAPKLLIYRASKLEAGVPSRFSGSGSGTDFTLTISSLQPEDFATYYCQQSSEIPYSFGQGTKVEIK
Regarding B13, the binding result in assay [3] and in assay [4] was “no binding” throughout.

B14: MAdCAM Antibody Table 2 Clone 22 (antibody, human IgG1, V domains shown)
VH: EVQLLESGGGLVQPGGSLRLSCAASGFTFDDYAMHWVRQAPGKGLEWVSGISWNSGSIGYADSVKGRFTISRDNSKNTLYLQMNSLRAEDTAVYYCAKDIVAAGHYYYGMDVWGQGTTVTVSS
VL: DIQMTQSPSSLSASVGDRVTITCQASQDISNYLNWYQQKPGKAPKLLIYDASNLETGVPSRFSGSGSGTDFTLTISSLQPEDFATYYCQQSYSTPLTFGGGTKVEIK
B14: the binding result in assay [3] was “no binding”; in assay [5] it was “binds”; in assay [4], “no binding”.

B15: MAdCAM Antibody Table 1 Clone 4 (scFv)
scFv: QVQLVQSGAEVKKPGASVKVSCKASGGTFSSYAISWVRQAPGQGLEWMGSINPSGDTTSYAQKFQGRVTMTRDTSTSTVYMELSSLRSEDTAVYYCAKDKAQWLVGYFDYWGQGTLVTVSSGGGGSGGGGSGGGGSGGGGSDIQMTQSPSSLSASVGDRVTITCQASQDISNSLNWYQQKPGKAPKLLIYAASSLQSGVPSRFSGSGSGTDFTLTISSLQPEDFATYYCQQSYSSVITFGQGTKVEIK
As to B15, the binding result in assay [1] and in assay [2] was “binds” each time.
